Laboratory results published in patent publication US20260193366A1 (APOGEE THERAPEUTICS, published 2026).

T1: cynomolgus monkey IL-4Rα (cynomolgus monkey, UniProt P24394 26-231 (human entry), limits assumed)
T1 construct: also called Cyno IL-4Rα; cyIL-4Rα
T1 chain: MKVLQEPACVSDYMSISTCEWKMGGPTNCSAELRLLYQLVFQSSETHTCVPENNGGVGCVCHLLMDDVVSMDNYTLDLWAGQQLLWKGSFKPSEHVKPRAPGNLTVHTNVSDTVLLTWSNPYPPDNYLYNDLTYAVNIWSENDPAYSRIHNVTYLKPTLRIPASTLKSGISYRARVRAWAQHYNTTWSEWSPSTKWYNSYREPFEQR

T2: human IL-4Rα (human, UniProt P24394 26-232)
T2 construct: also called Hu IL-4Rα; hIL-4Rα
T2 sequence: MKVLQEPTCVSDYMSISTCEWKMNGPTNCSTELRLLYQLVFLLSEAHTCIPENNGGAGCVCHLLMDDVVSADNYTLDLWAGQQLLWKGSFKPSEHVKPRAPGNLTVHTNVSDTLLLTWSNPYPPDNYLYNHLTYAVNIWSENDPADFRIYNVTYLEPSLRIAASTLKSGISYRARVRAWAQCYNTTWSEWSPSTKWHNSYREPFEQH

T3: hIL-4Rα on cells (human, UniProt P24394 26-825)
T3 sequence: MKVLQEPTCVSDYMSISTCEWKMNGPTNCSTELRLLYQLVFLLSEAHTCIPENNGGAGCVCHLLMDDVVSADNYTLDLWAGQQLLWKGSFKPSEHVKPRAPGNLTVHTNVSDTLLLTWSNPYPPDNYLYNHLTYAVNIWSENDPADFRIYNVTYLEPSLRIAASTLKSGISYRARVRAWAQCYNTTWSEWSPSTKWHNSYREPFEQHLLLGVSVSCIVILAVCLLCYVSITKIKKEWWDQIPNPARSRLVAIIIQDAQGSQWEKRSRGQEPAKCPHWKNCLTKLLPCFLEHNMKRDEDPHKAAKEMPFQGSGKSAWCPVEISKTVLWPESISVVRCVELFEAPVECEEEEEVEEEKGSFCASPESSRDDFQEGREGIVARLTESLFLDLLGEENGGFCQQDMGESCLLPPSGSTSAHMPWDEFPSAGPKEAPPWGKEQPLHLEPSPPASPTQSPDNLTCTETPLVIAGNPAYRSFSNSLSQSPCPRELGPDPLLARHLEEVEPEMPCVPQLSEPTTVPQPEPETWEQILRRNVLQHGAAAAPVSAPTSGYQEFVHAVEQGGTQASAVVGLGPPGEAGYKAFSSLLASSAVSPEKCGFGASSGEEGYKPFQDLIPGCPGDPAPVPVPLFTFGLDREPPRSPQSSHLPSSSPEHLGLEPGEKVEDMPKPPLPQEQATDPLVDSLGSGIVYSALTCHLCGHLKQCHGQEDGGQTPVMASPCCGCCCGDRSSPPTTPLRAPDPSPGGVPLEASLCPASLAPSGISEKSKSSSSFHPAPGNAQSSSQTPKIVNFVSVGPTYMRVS


How the values were obtained:
cynomolgus monkey IL-4Rα = target: T1, cynomolgus monkey IL-4Rα; test: SPR, Carterra LSA;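 note: antibodies captured on an anti-human Fc sensor chip, antigen injected at several concentrations, association and dissociation rates fitted with a 1:1 Langmuir model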
Experimental: (§1) Binding affinity (KD) of antibodies to human and cynomolgus monkey IL-4Rα was determined through surface plasmon resonance (SPR) using a Carterra LSA. Briefly, an HC30M sensor chip that was previously functionalized with a polyclonal mixture of goat anti-human Fc antibody and used to capture purified antibodies at a level between 100-1000 RLU. […] Regeneration of the chip between different concentrations of antigen was performed with 200 mM phosphoric acid and antibody was captured again as previously described. Association and dissociation rate constants were subsequently determined through fitting to a 1:1 Langmuir binding model using the Kinetics Software from Carterra from which a KD value was derived.

human IL-4Rα = target: T2, human IL-4Rα; test: SPR, Carterra LSA;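 note: antibodies captured on an anti-human Fc sensor chip, antigen injected at several concentrations, association and dissociation rates fitted with a 1:1 Langmuir model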
Experimental: as §1

hIL-4Rα on cells [1] = target: T3, hIL-4Rα on cells; test: cell-based or functional assay
hIL-4Rα on cells [2] = target: T3, hIL-4Rα on cells; test: cell-based or functional assay; remark: listed apart in the source
hIL-4Rα on cells [3] = target: T3, hIL-4Rα on cells; test: cell-based or functional assay; remark: listed apart in the source
hIL-4Rα on cells [4] = target: T3, hIL-4Rα on cells; test: FACS on HEK293 cells, competitor biotin-hIL-13;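 note: stably transduced cells co-expressing both receptor chains, stained cold, with cell-bound signal read as mean fluorescence intensity by flow cytometry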
Experimental: (§2) Briefly, HEK293 previously transduced to stably express both hIL-13Rα and hIL-4Rα were cultured and harvested. Cells were seeded at 200,000 cells in 100 uL per well. Cells were washed and the supernatant discarded. […] The cells were stained in this mixture at 4° C. for 1 hour. […] Cells were incubated 4° C. for 1 hour, protected from light. Cells were then washed and the MFI of cells in each well were recorded by FACS using a BD FACSCanto II. Subsequent data were analyzed using GraphPad Prism.

hIL-4Rα on cells [5] = target: T3, hIL-4Rα on cells; test: FACS on HEK293 cells, competitor biotin-hIL-4;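 note: HEK293 cells stably co-expressing hIL-13Rα and hIL-4Rα, stained for 1 h at 4 °C, read-out as mean fluorescence intensity by flow cytometry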
Experimental: as §2

KD Relative to Dupilumab (cynomolgus monkey IL-4Rα)	Kd (cynomolgus monkey IL-4Rα) [nM]	KD Relative to Dupilumab (human IL-4Rα)	Kd (human IL-4Rα) [nM]	Relative Inhibition of IL-4 induced TF-1 Proliferation IC50 (hIL-4Rα on cells [1])	Relative Inhibition of IL-13 induced TF-1 Proliferation IC50 (hIL-4Rα on cells [1])	Relative Inhibition of IL-4 induced pSTAT6 IC50 (hIL-4Rα on cells [2])	Relative Inhibition of IL-13 induced pSTAT6 IC50 (hIL-4Rα on cells [2])	Relative Inhibition of IL-4 induced TARC IC50 (hIL-4Rα on cells [3])	Relative Inhibition of IL-13 induced TARC IC50 (hIL-4Rα on cells [3])	Relative Blockade of IL-13 Binding IC50 (hIL-4Rα on cells [4])	Relative Blockade of IL-4 Binding IC50 (hIL-4Rα on cells [5])	Binder
0.02	15.7	0.72	0.0081	0.486 relative to dupilumab	0.851 relative to dupilumab	0.63 relative to dupilumab	0.624 relative to dupilumab	0.693 relative to dupilumab	1.39 relative to dupilumab	0.695 relative to dupilumab	0.887 relative to dupilumab	Construct 29 (mAb437) (antibody, IgG4, V domains shown, VH/VL only) VH: EVQLVESGGGLEQPGGSLRLSCAGSGFTFRDFAMTWVRQAPGKGLEWVSSISGSGGNIYYADSVKGRFTISRDNSKNTLYLQMNSLRAEDTAVYYCAKDRLSVTVRPRYYGLDVWGQGTTVTVSS VL: DIVMTQSPLSLPVTPGEPASISCTSSQSLLYSIGYNYVDWYLQKSGQSPQLLIYLGNKRASGVPDRFSGSGSGTDFTLKISRVEAEDVGFYYCMQSLTSPYTFGQGTKLEIK
0.17	107	1.25	0.0141	0.414 relative to dupilumab	1.37 relative to dupilumab	0.592 relative to dupilumab	0.671 relative to dupilumab	0.427 relative to dupilumab	0.485 relative to dupilumab	0.968 relative to dupilumab	1.1 relative to dupilumab	Construct 1 (mAb410) (antibody, IgG4, V domains shown, VH/VL only) VH: EVQLVESGGGLEQPGGSLRLSCAGSGFTFRDFAMTWVRQAPGKGLEWVSSISGSGGNIYYADSVKGRFTISRDNSKNTLYLQMNSLRAEDTAVYYCAKDRLSKTIRPRYYGLDVWGQGTTVTVSS VL: DIVMTQSPLSLPVTPGEPASISCRSSQSVLYSIGYNYVDWYLQKSGQSPQLLIYLGSKRASGVPDRFSGSGSGTDFTLKISRVEAEDVGFYYCMQSLDTPYTFGQGTKLEIK
0.09	59.5	1.02	0.0115	0.92 relative to dupilumab	2.06 relative to dupilumab	0.729 relative to dupilumab	1.35 relative to dupilumab	0.879 relative to dupilumab	1.44 relative to dupilumab	0.99 relative to dupilumab	1.16 relative to dupilumab	Construct 6 (mAb415) (antibody, IgG4, V domains shown, VH/VL only) VH: EVQLVESGGGLEQPGGSLRLSCAGSGFTFRDFAMTWVRQAPGKGLEWVSSISGSGDNIYYADSVKGRFTISRDNSKNTLYLQMNSLRAEDTAVYYCAKDRLSVTVRPRYYGLDVWGQGTTVTVSS VL: DIVMTQSPLSLPVTPGEPASISCRSSQGLLYSIGYNYVDWYLQKSGQSPQLLIYLGNKRASGVPDRFSGSGSGTDFTLKISRVEAEDVGFYYCMQSLQTPYTFGQGTKLEIK
0.25	157	0.83	0.0094	0.734 relative to dupilumab	1.47 relative to dupilumab	1.01 relative to dupilumab	2.1 relative to dupilumab	1.11 relative to dupilumab	1.05 relative to dupilumab	0.953 relative to dupilumab	1.01 relative to dupilumab	Construct 8 (mAb417) (antibody, IgG4, V domains shown, VH/VL only) VH: EVQLVESGGGLEQPGGSLRLSCAGSGFTFRDFAMTWVRQAPGKGLEWVSSISGSGDNIYYADSVKGRFTISRDNSKNTLYLQMNSLRAEDTAVYYCAKDRLSVTVRPRYYGLDVWGQGTTVTVSS VL: DIVMTQSPLSLPVTPGEPASISCRSTQSLLYSIGKNYVDWYLQKSGQSPQLLIYLGNNRATGVPDRFSGSGSGTDFTLKISRVEAEDVGFYYCMQALTTPYAFGQGTKLEIK
0.2	128	1.24	0.014	0.442 relative to dupilumab	1.11 relative to dupilumab	0.493 relative to dupilumab	0.862 relative to dupilumab	0.266 relative to dupilumab	0.614 relative to dupilumab	0.989 relative to dupilumab	1.01 relative to dupilumab	Construct 4 (mAb413) (antibody, IgG4, V domains shown, VH/VL only) VH: EVQLVESGGGLEQPGGSLRLSCAGSGFTFRDFAMTWVRQAPGKGLEWVSSISGSGGNIYYADSVKGRFTISRDNSKNTLYLQMNSLRAEDTAVYYCAKDRLSKTIRPRYYGLDVWGQGTTVTVSS VL: DIVMTQSPLSLPVTPGEPASISCTASQSLLYSIGYNYVDWYLQKSGQSPQLLIYLGNNRATGVPDRFSGSGSGTDFTLKISRVEAEDVGFYYCMQALTTPYTFGQGTKLEIK
0.14	85.4	0.76	0.00856	0.514 relative to dupilumab	0.683 relative to dupilumab	0.767 relative to dupilumab	0.66 relative to dupilumab	0.521 relative to dupilumab	0.506 relative to dupilumab	0.949 relative to dupilumab	0.877 relative to dupilumab	Construct 3 (mAb412) (antibody, IgG4, V domains shown, VH/VL only) VH: EVQLVESGGGLEQPGGSLRLSCAGSGFTFRDFAMTWVRQAPGKGLEWVSSISGSGSSTYYADSVKGRFTISRDNSKNTLYLQMNSLRAEDTAVYYCAKDRLSITVRPRYYGLDVWGQGTTVTVSS VL: DIVMTQSPLSLPVTPGEPASISCRSSQSLLYSIGYNYVDWYLQKSGQSPQLLIYLGNKRASGVPDRFSGSGSGTDFTLKISRVEAEDVGFYYCMQALTTPYTFGQGTKLEIK
0.18	116	2.1	0.0238	0.521 relative to dupilumab	0.94 relative to dupilumab	0.78 relative to dupilumab	1.07 relative to dupilumab	0.552 relative to dupilumab	0.897 relative to dupilumab	1 relative to dupilumab	1.01 relative to dupilumab	Construct 5 (mAb414) (antibody, IgG4, V domains shown, VH/VL only) VH: EVQLVESGGGLEQPGGSLRLSCAGSGFTFRDFAMTWVRQAPGKGLEWVSSISGSGDNIYYADSVKGRFTISRDNSKNTLYLQMNSLRAEDTAVYYCAKDRVSITIRPRYYGLDVWGQGTTVTVSS VL: DIVMTQSPLSLPVTPGEPASISCRSSQSLLYSIGKNYVDWYLQKSGQSPQLLIYLGNKRASGVPDRFSGSGSGTDFTLKISRVEAEDVGFYYCMQSLQTPYVFGQGTKLEIK
0.1	64.2	1.61	0.0181	0.376 relative to dupilumab	0.87 relative to dupilumab	0.507 relative to dupilumab	0.685 relative to dupilumab	0.267 relative to dupilumab	0.314 relative to dupilumab	0.942 relative to dupilumab	0.799 relative to dupilumab	Construct 2 (mAb411) (antibody, IgG4, V domains shown, VH/VL only) VH: EVQLVESGGGLEQPGGSLRLSCAGSGFTFRDFAMTWVRQAPGKGLEWVSSISGSGGNIYYADSVKGRFTISRDNSKNTLYLQMNSLRAEDTAVYYCAKDRLSKTIRPRYYGLDVWGQGTTVTVSS VL: DIVMTQSPLSLPVTPGEPASISCTASQSLLYSIGYNYVDWYLQKSGQSPQLLIYLGSKRASGVPDRFSGSGSGTDFTLKISRVEAEDVGFYYCMQALTTPYTFGQGTKLEIK
